{"source": "paper PMC3735941", "about": "“Clostridium scindens: a human gut microbe with a high potential to convert glucocorticoids into androgens” (Journal of Lipid Research, 2013)", "test_in_all_cases": "purified protein", "assay_type_in_all_cases": "biochemical, [Clostridium] scindens", "key": {"[1]": {"test_system": "C[C@]12CCC(=O)C=C1CC[C@@H]1[C@@H]2C(=O)C[C@@]2(C)[C@H]1CC[C@]2(O)C(=O)CO", "settings": "NADH co-substrate (150 μM in standard assay), 20 mM sodium phosphate pH 7.0, 0.1 M NaCl, 20% glycerol, 10 mM 2-mercaptoethanol, reductive direction"}, "[2]": {"test_system": "C[C@]12CCC(=O)C=C1CC[C@@H]1[C@@H]2[C@@H](O)C[C@@]2(C)[C@H]1CC[C@]2(O)C(=O)CO", "settings": "NADH co-substrate (150 μM in standard assay), 20 mM sodium phosphate pH 7.0, 0.1 M NaCl, 20% glycerol, 10 mM 2-mercaptoethanol, reductive direction"}, "[3]": {"test_system": "C[C@]12CCC(=O)C=C1CC[C@@H]1[C@@H]2C(=O)C[C@@]2(C)[C@H]1CC[C@]2(O)[C@@H](O)CO", "settings": "co-substrate not printed for this constant (oxidative direction, NAD+ presumed), 20 mM sodium phosphate pH 7.0, 0.1 M NaCl, 20% glycerol, 10 mM 2-mercaptoethanol"}}, "data": [{"substance": "DesC (20α-HSDH; desC-ST) ([Clostridium] scindens ATCC 35704)", "values": [{"measurement": "Km", "setting": "[1]", "value": 5.35, "unit": "µM"}, {"measurement": "Km", "setting": "[2]", "value": 1.46, "unit": "µM"}, {"measurement": "Km", "setting": "[3]", "value": 4.54, "unit": "µM"}]}]}
